Test: flow cytometry of surface IL-17RC, ST2 cells
Settings: glycan lost; control: SF-IL-17RCWT

B1: IL-17RC: SF-IL-17RCMutE (protein)
parent chain: MPVSWFLLSLALGRNPVVVSLERLMEPQDTARCSLGLSCHLWDGDVLCLPGSLQSAPGPVLVPTRLQTELVLRCPQKTDCALCVRVVVHLAVHGHWAEPEEAGKSDSELQESRNASLQAQVVLSFQAYPIARCALLEVQVPADLVQPGQSVGSAVFDCFEASLGAEVQIWSYTKPRYQKELNLTQQLPDCRGLEVRDSIQSCWVLPWLNVSTDGDNVLLTLDVSEEQDFSFLLYLRPVPDALKSLWYKNLTGPQNITLNHTDLVPCLCIQVWSLEPDSERVEFCPFREDPGAHRNLWHIARLRVLSPGVWQLDAPCCLPGKVTLCWQAPDQSPCQPLVPPVPQKNATVNEPQDFQLVAGHPNLCVQVSTWEKVQLQACLWADSLGPFKDDMLLVEMKTGLNNTSVCALEPSGCTPLPSMASTRAARLGEELLQDFRSHQCMQLWNDDNMGSLWACPMDKYIHRRWVLVWLACLLLAAALFFFLLLKKDRRKAARGSRTALLLHSADGAGYERLVGALASALSQMPLRVAVDLWSRRELSAHGALAWFHHQRRRILQEGGVVILLFSPAAVAQCQQWLQLQTVEPGPHDALAAWLSCVLPDFLQGRATGRYVGVYFDGLLHPDSVPSPFRVAPLFSLPSQLPAFLDALQGGCSTSAGRPADRVERVTQALRSALDSCTSSSEAPGCCEEWDLGPCTTLE
**Q.** With B1 as the protein, how does the localisation_or_trafficking read?
**A.** decreases

From article PMC9663306
